For assay [1], the target named is T1, yeast Arp2/3 complex (yeast, UniProt P32381 1-391; P47117 1-449; P38328 1-384; P53731 1-342; Q05933 1-178; P33204 …). In words: AUC.
The target of assay [2] is T1, yeast Arp2/3 complex. The assay can be described thus: fluorescence polarisation. On the technique in general: Fluorescence polarisation rises when a labelled molecule tumbles more slowly, as on binding a larger partner.
Assay [3] has as its target T1, yeast Arp2/3 complex. In words: fluorescence polarisation. This is another data set of the same source.
For assay [4], the target named is Arp3 (subunit of yeast Arp2/3 complex) (yeast, UniProt P47117 1-449). In words: cross-linking.
The target in assay [5] is ArpC1/Arc40 (subunit of yeast Arp2/3 complex) (yeast, UniProt P38328 1-384). In words: cross-linking.

Read-outs that look alike come from different tables or passages of the source.

Chain of ArpC1/Arc40 (subunit of yeast Arp2/3 complex) (P38328 whole entry, one chain of several): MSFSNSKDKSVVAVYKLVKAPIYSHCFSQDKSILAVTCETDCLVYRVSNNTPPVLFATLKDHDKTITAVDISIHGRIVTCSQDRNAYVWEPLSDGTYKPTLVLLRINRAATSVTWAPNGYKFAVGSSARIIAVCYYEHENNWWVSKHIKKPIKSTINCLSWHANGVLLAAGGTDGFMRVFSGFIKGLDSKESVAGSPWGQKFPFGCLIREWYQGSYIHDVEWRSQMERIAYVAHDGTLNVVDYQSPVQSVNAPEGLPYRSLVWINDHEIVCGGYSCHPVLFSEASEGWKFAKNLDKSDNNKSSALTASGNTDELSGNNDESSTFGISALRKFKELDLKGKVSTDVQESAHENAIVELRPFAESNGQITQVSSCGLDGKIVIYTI
Chain of Arp3 (subunit of yeast Arp2/3 complex) (P47117 whole entry, one chain of several): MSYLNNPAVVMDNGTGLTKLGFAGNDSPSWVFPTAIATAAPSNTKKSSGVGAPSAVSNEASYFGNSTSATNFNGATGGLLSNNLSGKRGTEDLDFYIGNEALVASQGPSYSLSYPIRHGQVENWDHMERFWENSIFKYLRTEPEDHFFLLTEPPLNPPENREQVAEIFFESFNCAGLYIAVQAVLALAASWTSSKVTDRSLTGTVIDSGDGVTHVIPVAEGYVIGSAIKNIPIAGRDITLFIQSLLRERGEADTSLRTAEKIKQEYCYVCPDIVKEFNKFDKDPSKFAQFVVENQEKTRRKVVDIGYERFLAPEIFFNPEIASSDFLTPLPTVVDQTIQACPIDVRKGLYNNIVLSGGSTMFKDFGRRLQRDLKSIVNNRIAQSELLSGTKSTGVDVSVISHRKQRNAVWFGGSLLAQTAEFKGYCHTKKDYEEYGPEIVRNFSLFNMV

B1: Gmf1-GFP (natural protein, S. cerevisiae, UniProt Q12156 1-149, looked up)
chain: MSNLYKIGTETRNKIKKFRTSTARTDSIKALSIKIEPKPSYEIIVDEDEQEELDEIEDLSELAEILPDNSPRFVLTAYPTTTKDGFKQTPLVLVYWKPMTVVSQEWKMLYAGALEMIREECGTFKLIEVSSGLEDDSDVEELREQLENC
One may read the Kd as the constant that tells how readily two partners part at equilibrium. On to B1, for which, in assay [1], the “KD of the first binding site” value was below 30 nM, the “KD of the second binding site” value is around 2000 nM and the “stoichiometry N” value was ~2 Gmf1-GFP per Arp2/3 complex. This molecule also returned a Kd in assay [2] of 13 ± 2 nM.

B2: wild-type Gmf1 (untagged) (natural protein, S. cerevisiae, UniProt Q12156 1-149, looked up)
chain: MSNLYKIGTETRNKIKKFRTSTARTDSIKALSIKIEPKPSYEIIVDEDEQEELDEIEDLSELAEILPDNSPRFVLTAYPTTTKDGFKQTPLVLVYWKPMTVVSQEWKMLYAGALEMIREECGTFKLIEVSSGLEDDSDVEELREQLENC
In assay [3], B2 displayed an equilibrium dissociation constant (Kd) of 10 ± 3 nM. Besides, the binding result in assay [4] and in assay [5] was “binds” each time.
